Data reported in patent US20160176928A1 (Bristol-Myers Squibb, published 2016).

Target: T1, Recombinant Human PD-L1-TVMV-His, hPDL1(19-239)-TVMV-His (human, UniProt Q9NZQ7 19-239)
T1 construct: also called PD-L1-His; soluble PD-L1
Assay: HTRF competition of PD-1-Ig binding to PD-L1-His; grade, legend paragraph 524: A=0.10-10 µM
Protocol: Homogenous Time-Resolved Fluorescence (HTRF) Assays of Binding of Soluble PD-1 to Soluble PD-L1. Soluble PD-1 and soluble PD-L1 refers to proteins with carboxyl-end truncations that remove the transmembrane-spanning regions and are fused to heterologous sequences, specifically the Fc portion of the human immunoglobuling G sequence (Ig) or the hexahistidine epitope tag (His). All binding studies were performed in an HTRF assay buffer consisting of dPBS supplemented with 0.1% (w/v) bovine serum albumin and 0.05% (v/v) Tween-20. For the PD-1-Ig/PD-L1-His binding assay, inhibitors were pre-incubated with PD-L1-His (10 nM final) for 15 m in 4 μl of assay buffer, followed by addition of PD-1-Ig (20 nM final) in 1 μl of assay buffer and further incubation for 15m. PD-L1 fusion proteins from either human, cynomologous macaques, mouse, or other species were used. HTRF detection was achieved using europium crypate-labeled anti-Ig monoclonal antibody (1 nM final) and allophycocyanin (APC) labeled anti-His monoclonal antibody (20 nM final). Antibodies were diluted in HTRF detection buffer and 5 μl was dispensed on top of binding reaction. The reaction was allowed to equilibrate for 30 minutes and signal (665 nm/620 nm ratio) was obtained using an EnVision fluorometer. […]

T1 sequence (Q9NZQ7 other isoform, or with tags, fused parts or gaps limits assumed): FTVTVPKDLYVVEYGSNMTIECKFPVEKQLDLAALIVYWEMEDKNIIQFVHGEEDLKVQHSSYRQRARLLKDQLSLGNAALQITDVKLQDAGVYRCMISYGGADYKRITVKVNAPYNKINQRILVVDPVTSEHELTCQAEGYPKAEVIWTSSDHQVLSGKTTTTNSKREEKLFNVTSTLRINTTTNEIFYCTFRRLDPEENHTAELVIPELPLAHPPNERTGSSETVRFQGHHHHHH

B1: Example 1001 (peptide)
peptide: FANPHLXWSWXXRCG
modifications: not fully specified; N-terminal acetyl group (from chloroacetyl capping) joined as a thioether to the side chain of Cys 14 (macrocycle); N-methyl-Ala at 2; X at 7 = residue from 'Fmoc-Cyclopenty-Gly-OH'; X at 11 and 12 = N-methyl-norleucine; C-terminal amide (Rink resin)
notes: the structure itself is only a drawing (CHEM-US-00006)
In the case of B1, the IC50 is reported as 0.1 to 10 µM.
